Measurements published in publication PMC6600395, “p53 Binds Preferentially to Non-B DNA Structures Formed by the Pyrimidine-Rich Strands of GAA·TTC Trinucleotide Repeats Associated with Friedreich’s Ataxia”.

How the values were obtained:
p53CD (core domain) [1] = molecular target: T1, p53CD (core domain) (human, UniProt P04637 94-312); experiment: EMSA; 50 ng pBSK/SmaI competitor; EMSA: 5 mM Tris-HCl pH 7.6, 0.5 mM EDTA, 0.5 mM DTT, 0.01% Triton X-100, 50 mM KCl, 15 min on ice (agarose 4 °C), pBSK/SmaI competitor in PAGE EMSA; ELISA: same without EDTA, 4 °C, 20 min; conditions: protein: recombinant; tags: GST (GST-p53CD, pGEX-4T); chain copies: 4; label: 32P (EMSA); biotin (ELISA); blunt
[2] = molecular target: T2, p53 (wild type, full length) (human, UniProt P04637 1-393); experiment: EMSA; strongest binder; 75 ng pBSK/SmaI competitor; EMSA: 5 mM Tris-HCl pH 7.6, 0.5 mM EDTA, 0.5 mM DTT, 0.01% Triton X-100, 50 mM KCl, 15 min on ice (agarose 4 °C), pBSK/SmaI competitor in PAGE EMSA; ELISA: same without EDTA, 4 °C, 20 min; conditions: protein: recombinant; tags: none stated for pT7-7wtp53 (Methods 3.3 says purified via GST tag); chain copies: 4; label: 32P (EMSA); biotin (ELISA); blunt
[3] = molecular target: T2, p53 (wild type, full length); experiment: EMSA; stronger than TTCNB and FXN-ANB; 50 ng pBSK/SmaI; EMSA: 5 mM Tris-HCl pH 7.6, 0.5 mM EDTA, 0.5 mM DTT, 0.01% Triton X-100, 50 mM KCl, 15 min on ice (agarose 4 °C), pBSK/SmaI competitor in PAGE EMSA; ELISA: same without EDTA, 4 °C, 20 min; conditions: protein: recombinant; tags: none stated for pT7-7wtp53 (Methods 3.3 says purified via GST tag); chain copies: 4; label: 5'-32P on Lock-F; lock clamp, Py-rich loop in strand 1; 3' overhang 3 nt on lock strand
[4] = molecular target: p53CT (C-terminal segment) (human, UniProt P04637 320-393); experiment: EMSA; 50 ng pBSK/SmaI competitor; EMSA: 5 mM Tris-HCl pH 7.6, 0.5 mM EDTA, 0.5 mM DTT, 0.01% Triton X-100, 50 mM KCl, 15 min on ice (agarose 4 °C), pBSK/SmaI competitor in PAGE EMSA; ELISA: same without EDTA, 4 °C, 20 min; conditions: protein: recombinant, tags: GST (GST-p53CT, pGEX-2TK), chain copies: 4, label: 5'-32P on Lock-F (EMSA), 3'-biotin on Lock-F (ELISA), lock clamp, 3' overhang 3 nt on lock strand
[5] = molecular target: T2, p53 (wild type, full length); experiment: EMSA; 75 ng pBSK/SmaI competitor; EMSA: 5 mM Tris-HCl pH 7.6, 0.5 mM EDTA, 0.5 mM DTT, 0.01% Triton X-100, 50 mM KCl, 15 min on ice (agarose 4 °C), pBSK/SmaI competitor in PAGE EMSA; ELISA: same without EDTA, 4 °C, 20 min; conditions: protein: recombinant, tags: none stated for pT7-7wtp53 (Methods 3.3 says purified via GST tag), chain copies: 4, label: 5'-32P on Lock-F (EMSA), 3'-biotin on Lock-F (ELISA), lock clamp, 3' overhang 3 nt on lock strand
p53CD (core domain) [6] = molecular target: T1, p53CD (core domain); experiment: EMSA; no stable complex; 50 ng pBSK/SmaI; EMSA: 5 mM Tris-HCl pH 7.6, 0.5 mM EDTA, 0.5 mM DTT, 0.01% Triton X-100, 50 mM KCl, 15 min on ice (agarose 4 °C), pBSK/SmaI competitor in PAGE EMSA; ELISA: same without EDTA, 4 °C, 20 min; conditions: protein: recombinant, tags: GST (GST-p53CD, pGEX-4T), label: 5'-32P on Lock-F (EMSA), 3'-biotin on Lock-F (ELISA), lock clamp, 3' overhang 3 nt on lock strand
[7] = molecular target: T2, p53 (wild type, full length); experiment: ELISA; Kd only in figure; EMSA: 5 mM Tris-HCl pH 7.6, 0.5 mM EDTA, 0.5 mM DTT, 0.01% Triton X-100, 50 mM KCl, 15 min on ice (agarose 4 °C), pBSK/SmaI competitor in PAGE EMSA; ELISA: same without EDTA, 4 °C, 20 min; conditions: protein: recombinant; tags: none stated for pT7-7wtp53 (Methods 3.3 says purified via GST tag); chain copies: 4; label: 5'-32P on Lock-F (EMSA); 3'-biotin on Lock-F (ELISA); lock clamp, T loop in strand 1; 3' overhang 3 nt on lock strand
[8] = unpaired (TTC)11 loop in strand 1

T1 sequence (P04637 94-312): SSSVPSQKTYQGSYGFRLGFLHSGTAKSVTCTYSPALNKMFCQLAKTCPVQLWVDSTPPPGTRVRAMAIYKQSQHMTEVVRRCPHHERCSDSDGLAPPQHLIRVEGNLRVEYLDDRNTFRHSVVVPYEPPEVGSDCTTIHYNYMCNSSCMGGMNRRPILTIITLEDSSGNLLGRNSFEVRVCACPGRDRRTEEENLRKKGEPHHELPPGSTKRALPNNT
Chain of p53CT (C-terminal segment) (P04637 320-393): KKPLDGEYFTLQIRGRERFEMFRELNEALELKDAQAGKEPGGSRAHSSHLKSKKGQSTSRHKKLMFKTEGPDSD
T2 sequence (P04637 whole entry): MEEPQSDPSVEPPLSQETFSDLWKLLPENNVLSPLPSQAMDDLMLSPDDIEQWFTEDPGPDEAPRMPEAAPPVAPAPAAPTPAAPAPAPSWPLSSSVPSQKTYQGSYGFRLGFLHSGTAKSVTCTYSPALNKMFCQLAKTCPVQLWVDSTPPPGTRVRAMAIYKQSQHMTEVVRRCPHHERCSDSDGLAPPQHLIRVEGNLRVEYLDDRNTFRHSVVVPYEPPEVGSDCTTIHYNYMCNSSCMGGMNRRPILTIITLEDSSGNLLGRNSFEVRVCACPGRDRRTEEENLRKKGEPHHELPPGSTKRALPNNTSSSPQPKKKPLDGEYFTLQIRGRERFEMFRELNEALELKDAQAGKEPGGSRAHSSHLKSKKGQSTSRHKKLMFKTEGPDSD

B1: CON (p53CON) (dsDNA)
DNA 1: GACGGTATCGATAAGAGACATGCCTAGACATGCCTCTTGATATCGAATTC
DNA 2: GAATTCGATATCAAGAGGCATGTCTAGGCATGTCTCTTATCGATACCGTC
B1: binds (p53CD (core domain) [1]); binds [2].

B2: FXN-TNB (structured_DNA)
DNA 1: GGGGCCTTAGGTATTTTCTTTATTTTCTTCTTCTTCTTCTTCTTTTTTTTTTTTTTTTGTATTTTTTATGGTACCGCGG
DNA 2: CCGCGGTACCATTACCTAAGGCCCCAAC
B2: binds [3].

B3: CTGNB (structured_DNA)
DNA 1: GGGGCCTTAGGTACTGCTGCTGCTGCTGCTGCTGCTGCTGCTGCTGATGGTACCGCGG
DNA 2: CCGCGGTACCATTACCTAAGGCCCCAAC
B3: binds ([4]; (CTG)11 hairpin in strand 1); binds ([5]; (CTG)11 hairpin in strand 1); no binding (p53CD (core domain) [6]; (CTG)11 hairpin in strand 1).

B4: TTCNB (structured_DNA)
DNA 1: GGGGCCTTAGGTATTCTTCTTCTTCTTCTTCTTCTTCTTCTTCTTCATGGTACCGCGG
DNA 2: CCGCGGTACCATTACCTAAGGCCCCAAC
B4: binds [4, 8]; binds [5, 8]; no binding (p53CD (core domain) [6]; [8]).

B5: TNB (structured_DNA)
DNA 1: GGGGCCTTAGGTATTTTTTTTTTTTTTTTTTTTTTTTTTTTTTTTTATGGTACCGCGG
DNA 2: CCGCGGTACCATTACCTAAGGCCCCAAC
B5: binds [7]; binds ([4]; T loop in strand 1); no binding (p53CD (core domain) [6]; T loop in strand 1).
